The text below walks through data of publication PMC9352680, “A comprehensive thermodynamic model for RNA binding by the Saccharomyces cerevisiae Pumilio protein PUF4”.

Bounds are passed on as bounds.

For the data set, the target named is T1, PUF4 RNA-binding domain (Saccharomyces cerevisiae, UniProt P25339 537-888).
T1 sequence: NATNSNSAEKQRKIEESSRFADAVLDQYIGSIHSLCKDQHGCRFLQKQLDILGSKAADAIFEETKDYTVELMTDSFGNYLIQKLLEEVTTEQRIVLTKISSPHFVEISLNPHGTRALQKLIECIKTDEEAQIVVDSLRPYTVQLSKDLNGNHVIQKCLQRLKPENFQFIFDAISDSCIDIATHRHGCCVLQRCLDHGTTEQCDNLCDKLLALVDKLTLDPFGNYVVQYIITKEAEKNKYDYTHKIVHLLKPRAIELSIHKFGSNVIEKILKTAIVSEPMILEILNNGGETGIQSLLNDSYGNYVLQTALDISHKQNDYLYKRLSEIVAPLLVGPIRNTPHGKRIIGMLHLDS
The experiment in a line: Mg; RNA-MaP; 20 mM Na-HEPES pH 7.4, 30 mM KOAc, 0.75 mM MgCl2, 0.1% Tween-20, 5% glycerol, 0.1 mg/mL BSA, 2 mM DTT; 25 C; 0.0125-409.6 nM protein. As to conditions: tags: N-His6-TEV cleaved; C-SNAP kept, Cy3B-labelled; label: tethered on chip by stalled RNA polymerase.

As for UCUCUUUGUACUGUAAUCUCUU (ssRNA) [Ic_S1_P5E.1_K5.1_C5.1_H5.1_A5.1_[T5C]_[A7G]_F5.1_[T9A]_T5.1], binding was put at a Kd of 7.89 nM. With UCUCUUUGUACGACCAUCUCUU (ssRNA) [Ic_S1_P5E.1_K5.1_C5.1_H5.1_A5.1_[T5C]_[T6G]_F5.1_[T8C]_[T9C]_T5.1], binding was put at a Kd of 1000 nM.

In turn, UCUCUUUGUAUCCAGCUCUCUU (ssRNA) [Ic_S1_P5E.1_K5.1_C5.1_H5.1_A5.1_[T6C]_[A7C]_F5.1_[T8A]_[T9G]_[A10C]_T5.1] came in with an equilibrium dissociation constant (Kd) of 1300 nM. The Kd values of the last two molecules are within 1.5-fold of each other. On to UCUCUUCGUAUGUAUCUCUU (ssRNA) [Ib_S1_P3E.1_K3.1_C3.1_H3.1_[T1C]_A3.1_[A6G]_F3.1_T3.1], for which binding was characterised by a dissociation constant (Kd) of 932 nM.

Turning to UCUCUUUGUAUGUUUCUCUCUU (ssRNA) [Ic_S1_P5E.1_K5.1_C5.1_H5.1_A5.1_[T6G]_[A7T]_F5.1_[A10C]_T5.1], the Kd came to 47 nM. For UCUCUUGGUAUUUAUCUCUU (ssRNA) [Ib_S1_P3E.1_K3.1_C3.1_H3.1_[T1G]_A3.1_[A6T]_F3.1_T3.1], the Kd is > 2300 nM. With UCUCUUUGUACGUCUGUCUCUU (ssRNA) [Ic_S1_P5E.1_K5.1_C5.1_H5.1_A5.1_[T5C]_[T6G]_[A7T]_F5.1_[T8C]_[A10G]_T5.1], the Kd worked out at 697 nM. This counts as sub-micromolar. Next, UCUCUUAGUACAUAUCUCUU (ssRNA) [Ib_S1_P3E.1_K3.1_C3.1_H3.1_[T1A]_A3.1_[T5C]_F3.1_T3.1]: 1760 nM; UCUCUUUGUAUACCGGUCUCUU (ssRNA) [Ic_S1_P5E.1_K5.1_C5.1_H5.1_A5.1_[T6A]_[A7C]_F5.1_[T8C]_[T9G]_[A10G]_T5.1]: 470 nM. Next, UCUCUUUGUAUAUAUUUCUCUU (ssRNA) [Ic_S1_P5E.1_K5.1_C5.1_H5.1_A5.1_[T6A]_[A7T]_F5.1_[T8A]_[A10T]_T5.1]: 7.35 nM; UCUCUUUGUAGCCUCAUCUCUU (ssRNA) [Ic_S1_P5E.1_K5.1_C5.1_H5.1_A5.1_[T5G]_[T6C]_[A7C]_F5.1_[T9C]_T5.1]: 721 nM; UCUCUUUGUAACUAAAUCUCUU (ssRNA) [Ic_S1_P5E.1_K5.1_C5.1_H5.1_A5.1_[T5A]_[T6C]_[A7T]_F5.1_[T8A]_[T9A]_T5.1]: 506 nM. Next, UCUCUUUGUAUUGCCUUCUCUU (ssRNA) [Ic_S1_P5E.1_K5.1_C5.1_H5.1_A5.1_[A7G]_F5.1_[T8C]_[T9C]_[A10T]_T5.1]: 652 nM. Molecule UCUCUUUGUACUCUUUUCUCUU (ssRNA) [Ic_S1_P5E.1_K5.1_C5.1_H5.1_A5.1_[T5C]_[A7C]_F5.1_[A10T]_T5.1] returned a Kd of 23.1 nM. Next, UCUCUUUGUAAUGGUCUCUCUU (ssRNA) [Ic_S1_P5E.1_K5.1_C5.1_H5.1_A5.1_[T5A]_[A7G]_F5.1_[T8G]_[A10C]_T5.1]: 1800 nM.

On to UCUCUUUGUACUUCCCUCUCUU (ssRNA) [Ic_S1_P5E.1_K5.1_C5.1_H5.1_A5.1_[T5C]_[A7T]_F5.1_[T8C]_[T9C]_[A10C]_T5.1], for which the Kd was 782 nM. Turning to UCUCUUUGUACCUCCCUCUCUU (ssRNA) [Ic_S1_P5E.1_K5.1_C5.1_H5.1_A5.1_[T5C]_[T6C]_[A7T]_F5.1_[T8C]_[T9C]_[A10C]_T5.1], binding was characterised by a dissociation constant (Kd) of 414 nM. Take UCUCUUUGUAAGUAAAUCUCUU (ssRNA) [Ic_S1_P5E.1_K5.1_C5.1_H5.1_A5.1_[T5A]_[T6G]_[A7T]_F5.1_[T8A]_[T9A]_T5.1]: the Kd amounted to 2150 nM.

As for UCUCUUUGUAUCGAUGUCUCUU (ssRNA) [Ic_S1_P5E.1_K5.1_C5.1_H5.1_A5.1_[T6C]_[A7G]_F5.1_[T8A]_[A10G]_T5.1], the Kd is 859 nM. Compared with the last molecule, the Kd is about 2.5-fold lower. Next, UCUCUUUGUAUAUAAUUCUCUU (ssRNA) [Ic_S1_P5E.1_K5.1_C5.1_H5.1_A5.1_[T6A]_[A7T]_F5.1_[T8A]_[T9A]_[A10T]_T5.1]: 4.21 nM. In turn, UCUCUUUGUACGUGCUUCUCUU (ssRNA) [Ic_S1_P5E.1_K5.1_C5.1_H5.1_A5.1_[T5C]_[T6G]_[A7T]_F5.1_[T8G]_[T9C]_[A10T]_T5.1] displayed a Kd of 297 nM. UCUCUUUGUAAAUCCCUCUCUU (ssRNA) [Ic_S1_P5E.1_K5.1_C5.1_H5.1_A5.1_[T5A]_[T6A]_[A7T]_F5.1_[T8C]_[T9C]_[A10C]_T5.1] registered a Kd of 240 nM.

In the case of UCUCUUUGUAUCCAUUUCUCUU (ssRNA) [Ic_S1_P5E.1_K5.1_C5.1_H5.1_A5.1_[T6C]_[A7C]_F5.1_[T8A]_[A10T]_T5.1], binding was put at a Kd of 119 nM. Against the preceding molecule, the Kd is about 2-fold lower.

In turn, UCUCUUUGUAAUGGUUUCUCUU (ssRNA) [Ic_S1_P5E.1_K5.1_C5.1_H5.1_A5.1_[T5A]_[A7G]_F5.1_[T8G]_[A10T]_T5.1] registered a Kd of 1060 nM. Against the preceding molecule, the Kd is about 8.9-fold higher. Next, UCUCUUUGUACCUAUUUCUCUU (ssRNA) [Ic_S1_P5E.1_K5.1_C5.1_H5.1_A5.1_[T5C]_[T6C]_[A7T]_F5.1_[T8A]_[A10T]_T5.1]: 48.7 nM; UCUCUUUGUACUCCCUUCUCUU (ssRNA) [Ic_S1_P5E.1_K5.1_C5.1_H5.1_A5.1_[T5C]_[A7C]_F5.1_[T8C]_[T9C]_[A10T]_T5.1]: 496 nM. Next, UCUCUUUGUACACGCGUCUCUU (ssRNA) [Ic_S1_P5E.1_K5.1_C5.1_H5.1_A5.1_[T5C]_[T6A]_[A7C]_F5.1_[T8G]_[T9C]_[A10G]_T5.1]: 709 nM.

As to UCUCUUUGUAACGGCCUCUCUU (ssRNA) [Ic_S1_P5E.1_K5.1_C5.1_H5.1_A5.1_[T5A]_[T6C]_[A7G]_F5.1_[T8G]_[T9C]_[A10C]_T5.1], the Kd was > 2300 nM. Next, UCUCUUUGUAUAUUGUCUCUU (ssRNA) [Ic_S1_P4E.1_K4.1_C4.1_H4.1_A4.1_F4.1_[A9G]_T4.1]: 3.06 nM; UCUCUUUGUAUACGGCUCUCUU (ssRNA) [Ic_S1_P5E.1_K5.1_C5.1_H5.1_A5.1_[T6A]_[A7C]_F5.1_[T8G]_[T9G]_[A10C]_T5.1]: 460 nM.

Take UCUCUUUGUAUCGUUGUCUCUU (ssRNA) [Ic_S1_P5E.1_K5.1_C5.1_H5.1_A5.1_[T6C]_[A7G]_F5.1_[A10G]_T5.1]: the Kd was 315 nM. As to UCUCUUUGUAUCCAGUUCUCUU (ssRNA) [Ic_S1_P5E.1_K5.1_C5.1_H5.1_A5.1_[T6C]_[A7C]_F5.1_[T8A]_[T9G]_[A10T]_T5.1], the Kd was determined as 1040 nM.

On to UCUCUUUGUAAUAUGGUCUCUU (ssRNA) [Ic_S1_P5E.1_K5.1_C5.1_H5.1_A5.1_[T5A]_F5.1_[T9G]_[A10G]_T5.1], for which the affinity, expressed as Kd, was 10.1 nM. Next, UCUCUUUGUAUCGCUGUCUCUU (ssRNA) [Ic_S1_P5E.1_K5.1_C5.1_H5.1_A5.1_[T6C]_[A7G]_F5.1_[T8C]_[A10G]_T5.1]: 978 nM; UCUCUUUGUAUAUACGUCUCUU (ssRNA) [Ic_S1_P5E.1_K5.1_C5.1_H5.1_A5.1_[T6A]_[A7T]_F5.1_[T8A]_[T9C]_[A10G]_T5.1]: 14.9 nM. Next, UCUCUUUGUACAAUAGUCUCUU (ssRNA) [Ic_S1_P5E.1_K5.1_C5.1_H5.1_A5.1_[T5C]_[T6A]_F5.1_[T9A]_[A10G]_T5.1]: 0.742 nM; UCUCUUUGUAUUUAAAUCUCUU (ssRNA) [Ic_S1_P5E.1_K5.1_C5.1_H5.1_A5.1_[A7T]_F5.1_[T8A]_[T9A]_T5.1]: 106 nM; UCUCUUUGUAUAGCAUUCUCUU (ssRNA) [Ic_S1_P5E.1_K5.1_C5.1_H5.1_A5.1_[T6A]_[A7G]_F5.1_[T8C]_[T9A]_[A10T]_T5.1]: 32.4 nM. Next, UCUCUUUGUAGCUACGUCUCUU (ssRNA) [Ic_S1_P5E.1_K5.1_C5.1_H5.1_A5.1_[T5G]_[T6C]_[A7T]_F5.1_[T8A]_[T9C]_[A10G]_T5.1]: > 2300 nM.

In the case of UCUCUUGGUAUGUAUCUCUU (ssRNA) [Ib_S1_P3E.1_K3.1_C3.1_H3.1_[T1G]_A3.1_[A6G]_F3.1_T3.1], the affinity, expressed as Kd, was 723 nM. Next, UCUCUUUGUACUCAUUUCUCUU (ssRNA) [Ic_S1_P5E.1_K5.1_C5.1_H5.1_A5.1_[T5C]_[A7C]_F5.1_[T8A]_[A10T]_T5.1]: 119 nM; UCUCUUUGUAUAAACGUCUCUU (ssRNA) [Ic_S1_P5E.1_K5.1_C5.1_H5.1_A5.1_[T6A]_F5.1_[T8A]_[T9C]_[A10G]_T5.1]: 378 nM; UCUCUUUGUAUCCUAUUCUCUU (ssRNA) [Ic_S1_P5E.1_K5.1_C5.1_H5.1_A5.1_[T6C]_[A7C]_F5.1_[T9A]_[A10T]_T5.1]: 5.11 nM.

The molecule UCUCUUUGUAGCCUUUUCUCUU (ssRNA) [Ic_S1_P5E.1_K5.1_C5.1_H5.1_A5.1_[T5G]_[T6C]_[A7C]_F5.1_[A10T]_T5.1] came in with a Kd of 470 nM.

UCUCUUUGUAAAACACUCUCUU (ssRNA) [Ic_S1_P5E.1_K5.1_C5.1_H5.1_A5.1_[T5A]_[T6A]_F5.1_[T8C]_[T9A]_[A10C]_T5.1] showed a Kd of 56.4 nM. This Kd lies about 8.3-fold lower than the previous one.

In the case of UCUCUUUGUAGUUUAUUCUCUU (ssRNA) [Ic_S1_P5E.1_K5.1_C5.1_H5.1_A5.1_[T5G]_[A7T]_F5.1_[T9A]_[A10T]_T5.1], the affinity, expressed as Kd, was 15.2 nM.

A word on the Kd: it is a measure of binding affinity in units of concentration.
